Substrate: NCCc1c[nH]c2ccc(O)cc12
Assay: HPLC-fluorescence detection of N-acetylserotonin; Lineweaver-Burk plot
Assay type: biochemical, Pyropia yezoensis
Details: acetyl-CoA co-substrate (0.5 mM in standard assay), 100 mM potassium phosphate pH 8.8, 55 °C

B1: PySNAT (Pyropia yezoensis; I2V) (protein)
chain: MVFWKNFFQNSNINASSEKNFKKLIVLDKTCDKIEFKDIYLSSNKNINLYELEQLCDSVGWVKRPLKKVKIALKNSSIIISLIQKKDANSKLVGFARATSDNGFNATIWDVVIHPDFQGLGLGKVVIHQLIQQLRQAEISTITLFAEPDVVSFYKKLGFIKDPDGVKGMFWYPR
notes: full-length chloroplast-encoded protein, 174 aa, calculated 20099 Da, C-terminal His tag kept (pET28b NcoI/XhoI), E. coli BL21(DE3), Ni-NTA; no transit peptide; I2V read from the printed NcoI forward primer (ATG GTC for native ATG ATC)
Question: Which Km does the source give for B1 here?
Answer: 467 µM

Reference: publication PMC4321536, “Chloroplast-encoded serotonin N-acetyltransferase in the red alga Pyropia yezoensis: gene transition to the nucleus from chloroplasts” (Journal of Experimental Botany, 2014)
